# Measured values taken from the DeepSol protein solubility set.
# Assay: soluble on expression in E. coli; label from the status in PepcDB or PDB records
row,Sequence,soluble on expression in E. coli
1,MSLGISEAFDLRPDYIISVIKDTKAKLVGFQFPEGLKRKGPELAKIVEEATGAEVLISGDPCFGACDLDRTLLDHVELLFHFGHAELEDVRLSDKVYFIETRSSVDVRPVVEKALPGLKGEKIGLITTVQHVHKLHDVCRVLEAGGKTCVIGRGDSRLAYAGQVLGCNFSAARDEVCDEYLYIGSGDFHPLGVALSTKKRVLAADPFSGEVREVDPSRILRQRSAVIAKSLDAQVFGIIVSSKNGQMRMELASSLKEIAKKHGKEAHLILIDLVTPDQLLQFKVDAFVNTACPRLAVDEVGRFPSPMLTPQEFEIVLGEREWEKLVLDEITEEPVLEHHHHHH,soluble
2,MIYDFTTKISRKNLGSLKWDLMYSQNPEVGNEVVPLSVADMEFKNPPELIEGLKKYLDETVLGYTGPTEEYKKTVKKWMKDRHQWDIQTDWIINTAGVVPAVFNAVREFTKPGDGVIIITPVYYPFFMAIKNQERKIIECELLEKDGYYTIDFQKLEKLSKDKNNKALLFCSPHNPVGRVWKKDELQKIKDIVLKSDLMLWSDEIHFDLIMPGYEHTVFQSIDEQLADKTITFTAPSKTFNIAGMGMSNIIIKNPDIRERFTKSRDATSGMPFTTLGYKACEICYKECGKWLDGCIKVIDKNQRIVKDFFEVNHPEIKAPLIEGTYLQWIDFRALKMDHKAMEEFMIHKAQIFFDEGYIFGDGGIGFERINLAAPSSVIQESLERLNKALKDLKNRHLK,soluble
3,MFQVQKELASHEAVVVALFEEEKTSSFVQELDKAFEGQLQVLLEEKELSTKKKAISKVHSLGKTDVKRYYFVGLGKKESYTTETLRSALGKTFKTLQAAKVQDAAILLDSFVTEKLDAIDVAHIAAEVQGLGTYELQTYKSDKKDRVELEKFTAITAEDAQEIEAALTVGYVHGRATNSARTLVNMPPNVLTATKLAEYAVELAEKYDMDYKVLEKEEMEELGMGALLAVNQGSVEPPKMIALIYKGKEEWTDVIGFVGKGITYDTGGYSLKPREGMVGMKGDMGGAAAVLGAMEIIGELRPEQNVIAVIPSTDNVVSGTAFKPDDVITSMSGKTIEVLNTDAEGRLALADGITYAKKLGANYLIDVATLTGGVIVALGNHTTGAMTNNEELFEQVLEASMETDESIWQLPIFDRDKERVRNSKFADLNNSPGREGHAVMAGTFIGEFAEDTPWVHLDIAGTSESSGAHDLGPAGATGAMVRTLATLVERFGEE,not soluble
4,MGSDKIHHHHHHMDANSLKAFLTIVDQGSFSEAAETLHLTQPAISKRLAALETQLGTRLIDRSNREIRLTEAGTRLLPHARKILDEIHNARMALTTSADSIGGELHAIASHHIGLHHLPNWLRRYRREYPQVDLHLQFMESDAAYDQMNKRNAELAFVTLSDSMNPEFSILAQWPDPMAFVVGKEHPLATLASPSLSDLAPHPALLPDTSTATYRVVSRLFLEANLTLRPLMPTNYLETIKMMVSVGLGWSILPVSMLDNSLKVLEVPHPVTRVLGAVALSRRQLGSAAQALLQIVEQEETRPESGQ,not soluble
5,MPASSTSSPSSKEEDEKHTSADEDVTPTASPSLVKSEVVKEEENDDADRTLTMPSTSQDIQPESSPAHGRSAPSSQEITSPPTVRRVATPLEAAEQEYYYFTTDMINQAALDIEREKEKFDSLITWYKLQRDDVPALGTSSVGNSTAPSYVSEKGSTTPMSSQPSSHQSGTSSTNGAHGGLNGFSCSPFGLENNPRSNDPMQCMSSPVELDEICPTLEDFMSSAASSSTPSTSSAPQMNQNQNTHPNSINHHHQPDTSLLMLNNHHSSPLNQLSFNHQMPSTSNSNPPSNASLKRRATEEFGNDGPMKQAKIEGSENDNNPMRKLEMMANSSNFRGGNTINEVVEASKKDERTLKMEKLDVIGKSVGEEFAQQAREAQMRQMQQAAAAAGSMPPSYPSPGQYPGPMHYPGMPPMMPPGAPFSAGASYPPMGGPFPPNPYGMHPGMTPGGYPMSAPGKMPFGSPSFPQSAPSPAAMAAMQQGRMPGPPMPPHMMTPQQQQHFMQMQQAQMAHFNAQKAAAAAAAAGMSPAARASPMGASPSPHHPHPSQFPPNHPANPMYHHHIMMMRAMHAQGGQPGHPGMMPPGMMPPGMMPPGMMPPGMHPGMAGMPPMHPGMQGMPPMHPGMQGMPGMPHGPPQPPQNPALMVAGNRAGSAEAAAAQMGNPHHPMMGANMWQLTPHYPPPLPASSSSGAGTPVSR,not soluble
6,MAPSTPLLTVRGSEGLYMVNGPPHFTESTVFPRESGKNCKVCIFSKDGTLFAWGNGEKVNIISVTNKGLLHSFDLLKAVCLEFSPKNTVLATWQPYTTSKDGTAGIPNLQLYDVKTGTCLKSFIQKKMQNWCPSWSEDETLCARNVNNEVHFFENNNFNTIANKLHLQKINDFVLSPGPQPYKVAVYVPGSKGAPSFVRLYQYPNFAGPHAALANKSFFKADKVTMLWNKKATAVLVIASTDVDKTGASYYGEQTLHYIATNGESAVVQLPKNGPIYDVVWNSSSTEFCAVYGFMPAKATIFNLKCDPVFDFGTGPRNAAYYSPHGHILVLAGFGNLRGQMEVWDVKNYKLISKPVASDSTYFAWCPDGEHILTATCAPRLRVNNGYKIWHYTGSILHKYDVPSNAELWQVSWQPFLDGIFPAKTITYQAVPSEVPNEEPKVATAYRPPALRNKPITNSKLHEEEPPQNMKPQSGNDKPLSKTALKNQRKHEAKKAAKQEARSDKSPDLAPTPAPQSTPRNTVSQSISGDPEIDKKIKNLKKKLKAIEQLKEQAATGKQLEKNQLEKIQKETALLQELEDLKLGI,soluble
7,GSMDYKDDDDKKTNWLKRIYRVRPCVKCKVAPRDWKVKNKHLRIFNMCKTCFNNSIDIGDDTYHGHVDWLMYADSKEISNT,soluble
8,MGSDKIHHHHHHMLRVAVVGGGPSGSCAAEVLAKAGIQTWLFERKLDNAKPCGGAIPLCMVDEFDLPESIIDRKVRNMRMISPSNREVDITLDKVYSPDDKSEYIGMCRREVMDAFMRDRAASLGTNLINGLVTKIDTGSNRQGPYTITYSDYSTGKSTGEAKSLEVDLIIGADGANSRVATAMDAGDYNVAIAFQERIKLPNEEMAYYEDLAEMYVGTDVSPDFYGWVFPKYDHVAVGTGTMQKNQTLIKSLQKGVRERAKKRLVHGEVIKVEAHPIPEHPRPRRVVGRMALVGDAAGYVTKSSGEGIYFAAKSGRMCAEQIVESSRSGELIPSEADLKKYLKKWDRKYGSTYIVLSILQAIFYSNDTAREAFVAMCDDMDVQRLTFDSYLYKKVVAMNPWQQIKLTLLTVDALARGIFRNQTSYKPVPSAVRSDEEVNAMLEIKTITGGIKVDNNKDASKQNLASEQEERDPAVSNKS,not soluble
9,MGSDKIHHHHHHMNLLPLFLAVAEEDNFRAAADRLGVTRSAVSQGIRRLEDAFGTTLVTRTTRSVRLTEAGERLREALSQPLSDIGTALDRVAGEDEPRGLLRIAVTSIAEQFLSGPLIASFAQAHPKVAIDVTVTDEEFDIVAAGFDAGVRLGEVIEQDMIAVPLTGDQRELAVAAPTYLAVRGTPAHPRELVHHRCIGWRRAPNVAPYRWEFEENGVPFDVAVEPQITTNDLRFMLRSALCGAGITFATEETFRPFVETGELVPLLQDFLPPFPGFFLYFPQRRNMTPKMRALIEHVRRWR,not soluble
10,MSLTNLLIRNVRPSADAALDILIEGDRIARIGPSLDAPAGCAIEDGAGALALPGLVEGHTHLDKTHWGMPWYRNQVGPRLVDRIENERHYRATSGHDAGAASLALARAFLAAGTTRIRTHVDIDTEAGLRHLHGVLATRETLRGEVDIQIVAFPQSGVLKRPGTDVLLSDALAAGADLLGGLDPCAIEGDPVEAVDVLFAIAERHGRGLDLHLHERGSMGAYSLDLILQRTATHGMQGKVTISHGFCLGDIGERERDALLARMAELGVGLVTTAPAAVPVPPVAACRAAGVTVIGGNDGVRDTWTPYGSPDMLERAMLIGMRNDFRRDDALEVALDCVTHGAARGCGFGDYGLQPGSRADVVLVDALTFAEAVVARPVRRLVVSSGKIVARNGALVEGHHHHHH,soluble
11,MKTCYYELLGVETHASDLELKKAYRKKALQYHPDKNPDNVEEATQKFAVIRAAYEVLSDPQERAWYDSHKEQILNDTPPSTDDYYDYEVDATVTGVTTDELLLFFNSALYTKIDNSAAGIYQIAGKIFAKLAKDEILSGKRLGKFSEYQDDVFEQDINSIGYLKACDNFINKTDKLLYPLFGYSPTDYEYLKHFYKTWSAFNTLKSFSWKDEYMYSKNYDRRTKREVNRRNEKARQQARNEYNKTVKRFVVFIKKLDKRMKEGAKIAEEQRKLKEQQRKNELNNRRKFGNDNNDEEKFHLQSWQTVKEENWDELEKVYDNFGEFENSKNDKEGEVLIYECFICNKTFKSEKQLKNHINTKLHKKNMEEIRKEMEEENITLGLDNLSDLEKFDSADESVKEKEDIDLQALQAELAEIERKLAESSSEDESEDDNLNIEMDIEVEDVSSDENVHVNTKNKKKRKKKKKAKVDTETEESESFDDTKDKRSNELDDLLASLGDKGLQTDDDEDWSTKAKKKKGKQPKKNSKSTKSTPSLSTLPSSMSPTSAIEVCTTCGESFDSRNKLFNHVKIAGHAAVKNVVKRKKVKTKRI,not soluble
12,MGSDKIHHHHHHMIFSCPIDRSDVNEKLECEKGHKFGIIGGQIYDFLLKDVEVDKLLSRVIPIYESIWAPLGLLITSGKTYTSFLREIGEFIDGDLIIDVGTGTGKIFDFLNCKTCIGIDVSLRFLMYMKRKRTRVIAVRADANNLPLKSGIADGISSTLVLHMLSNPSFAIREMSRVLKSNGKCSIAVLANVNSIIGKTLSRWWKVNLRHYDYYINLLQENSLKVVERKELGPWEVINCIKIS,not soluble
13,MGSDKIHHHHHHMPVSQPVSSQPPTANCYDLAVIGGGINGVGIAADAAGRGLKVFLCEKDDLAQHTSSASSKLIHGGLRYLEHYEFRLVREALAEREVLLAKAPHIVKPMRFVLPHRPHLRPAWMIRAGLFLYDHLGKRKRLGASRSLRFGPGYPLKPAITRGFEYADCAVDDARLVVLNAMAARELGAHIRTRTRCLRAERVEGLWQVELQHADGSLQTIHARALVNAAGPWVASFIKDDLKLDAPYGIRLIQGSHIIVPRLYEGEHAYILQNEDQRIVFCIPYLDRFTLIGTTDREYSGDPAAVAITEQETHYLLKVVNEHFNHQLSQADILHTYSGVRPLCNDESDNPSAVTRDYTLALSAEVGQAPLLSVFGGKLTTYRKLAESAMAELKPFFTQMRAPWTASAPLPGAEGMTTVQALIDAVLARCGWLPVDLAKRWVLTYGSRVWRLLDGVHGPEDLGQAIGAGLFTREVDYLLEEEWAEQTADIIWRRTKLGLSLTAQEQMALEAYLQQARKVRANSRAA,not soluble
14,MGFPKEGEKVQIHSYKHNGSIHRMWEETTILKGTQSLVIGANDRTVVTESDGRTWITREPAICYFHANYWFNVIGMLREDGVYYYCNLSSPFAYDPEALKYIDYDLDIKVYPDMTYTLLDEDEYEKHSEIMQYPPVIDTILKRNVAHLTQWIHQRKGPFAPDFVDMWYERYLMYRN,not soluble
15,STLEIAGLVRKNLVQFGVGEKNGSVRWVMNALGVKDDWLLVPSHAYKFEKDYEMMEFYFNRGGTYYSISAGNVVIQSLDVGFQDVVLMKVPTIPKFRDITQHFIKKGDVPRALNRLATLVTTVNGTPMLISEGPLKMEEKATYVHKKNDGTTVDLTVDQAWRGKGEGLPGMCGGALVSSNQSIQNAILGIHVAGGNSILVAKLVTQEMFQNIDKKIESQ,soluble
16,MGSDKIHHHHHHCASSLTQGKYVDGTHLVQAKGKKSQIVLEVKVDQGKIVDIKTKSHKETESLYLNAERLLPRIVANNGHEGIDAVSGATYSSNGILKAVNDLPRASSVQPEYVAVGAKEEQGDDFKLKWSIQPKLGLLVGDYYYEEARFRQGHMGSMTIVTNSQDRNDVILAEFNESGRPNYYTRLYQDVPKRMSEYNFSMGKKKGTAWVQSALTMEKLMVEQDKLTFEPNPNHDPKLANKLKEPNRLKYLGIDVVAGASNSIQQSMIPLTAKIHHKIHGEGTRLKFYQLAEKLVNEKGRWTGITAMLRLVVDPASKQIIKAHFDEIFADEKAQIQDASLKKFYRQSKYDSINYSEPARIGFNVMIDALNAHLQAGGSLFDINDLPATGDSGNYAATGFTKRSSSWDIYLNQAEQLYKKMRLDGVIAEHKHPAAK,not soluble
